pKd: −log10 of the molar value.
What was measured:
[1] = molecular target: raccoon dog ACE2 (rdACE2), peptidase domain (PD), wild type (raccoon dog) (UniProt B4XEP4); experiment: SPR
[2] = molecular target: raccoon dog ACE2 (rdACE2), peptidase domain (PD), wild type (raccoon dog) (UniProt B4XEP4); experiment: SPR; BIAcore […], 25°C, PBST (0.005% Tween-20 in PBS); […], single-cycle; 1:1 Langmuir model; […]
[3] = molecular target: SARS-CoV-2 Alpha variant spike RBD (UniProt P0DTC2); experiment: SPR

“SARS-CoV-2 Omicron BA.2 spike RBD (from UniProt P0DTC2 319-541) (domain or fragment)” was tested, and the fold decrease of affinity against PT RBD [1] was greater than 10 fold.

“SARS-CoV-2 Omicron XBB spike RBD (from UniProt P0DTC2 319-541) (domain or fragment)” was tested, and the fold decrease of affinity against PT RBD [2] was 10 fold.

Substance “SARS-CoV-2 PT RBD K417N variant (from UniProt P0DTC2 319-541) (domain or fragment)” has a fold decrease of affinity against PT RBD [1] greater than 6 fold.

For “raccoon dog ACE2 (rdACE2), peptidase domain (PD), wild type (from UniProt B4XEP4) E38D”, the pKd [3] was 7.91.

“raccoon dog ACE2 (rdACE2), peptidase domain (PD), wild type (from UniProt B4XEP4) L24Q” gave a pKd [3] of 7.37.

With “raccoon dog ACE2 (rdACE2), peptidase domain (PD), wild type (from UniProt B4XEP4) R353K” the pKd [3] was 7.23.

From article PMC11620640
